According to paper PMC7105484, “Crystal structures of REF6 and its complex with DNA reveal diverse recognition mechanisms” (Cell Discovery, 2020):
Substitutions are numbered along the chain they refer to.

Assays:
Settings in all cases: protein: recombinant; tags: His6-MBP or GST, TEV-cleavable; label: FAM in MST; none in crystal and EMSA; 5' overhang 1 nt on both strands, 15 bp
[1] = biological target: T1, REF6 W1311A (Arabidopsis thaliana, UniProt Q9STM3 1223-1360, W1311A); test: MST and EMSA; marked abrogation; MST: 20 mM HEPES pH 7.3, 150 mM NaCl, 0.2 mM TCEP, 0.5% CA-630, 25 C; EMSA: 30 uM protein, 10 uM dsDNA, 20 mM Tris pH 8.0, 100 mM NaCl, 2.5 mM MgCl2, 0.1% CA-630, 10% glycerol, 1 uM ZnSO4, 1 mM DTT, 4 C
T1 sequence: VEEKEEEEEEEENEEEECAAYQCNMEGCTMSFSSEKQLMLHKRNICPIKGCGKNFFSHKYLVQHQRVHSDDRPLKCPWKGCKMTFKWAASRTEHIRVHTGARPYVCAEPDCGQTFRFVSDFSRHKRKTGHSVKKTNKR

[2] = biological target: T2, REF6 S1341W (Arabidopsis thaliana, UniProt Q9STM3 1223-1360, S1341W); test: as above
T2 sequence: T1 sequence with A89W, S119W

[3] = biological target: T3, REF6 K1281A (Arabidopsis thaliana, UniProt Q9STM3 1223-1360, K1281A); test: MST; MST: 20 mM HEPES pH 7.3, 150 mM NaCl, 0.2 mM TCEP, 0.5% CA-630, 25 C; EMSA: 30 uM protein, 10 uM dsDNA, 20 mM Tris pH 8.0, 100 mM NaCl, 2.5 mM MgCl2, 0.1% CA-630, 10% glycerol, 1 uM ZnSO4, 1 mM DTT, 4 C
T3 sequence: T1 sequence with K59A, A89W

B1: NAC004 m5 (dsDNA)
DNA 1: CTTTCTCTGTTTTGTC
DNA 2: GGACAAAACAGAGAAA
In the case of B1, the binding result [1] is reported as “no binding”, the binding result [2] is reported as “no binding” and the Kd [3] is reported as 1300 nM.
